Target: synaptobrevin2 (syb2) All ItoA (rat) (UniProt P63045)

Substance: synaptobrevin2 (syb2) All ItoA (from UniProt P63045 1-116) (natural protein)
- mean open-state dwell time (<t (o-obs)>) of single fusion pores, ND5S(All ItoA) on t-SNARE BLM: 36 ms

— paper PMC10796598
